From the FLAb antibody collection (doi:10.7554/elife.23156) come the findings set out here.

The labels stand for the following.
B1: scFv; the commonest letter at each place (parent)
chain 1: EVKLDETGGGLVQPGRPMKLSCVASGFTFSDYWMNWVRQSPEKGLEWVAQIRNKPYNYETYYSDSVKGRFTISRDDSKSSVYLQMNNLRVEDMGIYYCTGSYYGMDYWGQGTSVTVS
chain 2: DVVMTQTPLSLPVSLGDQASISCRSSQSLVHSNGNTYLRWYLQKPGQSPKVLIYKVSNRFSGVPDRFSGSGSGTDFTLKISRVEAEDLGVYFCSQSTHVPWTFGGGTKLEIK

The variants in the data set “fluorescein” derive from B1. Put plainly: Kd (Tite-Seq). Particulars: with fluorescein; format: scFv 4-4-20, heavy + light.
Data set [1] covers variants of B1. In words: yeast surface expression (ratio to wild type); higher = more expressed. The following applies: format: scFv 4-4-20, heavy + light.

Where only a bound is given, the exact number is not on record here.

The term Kd denotes the equilibrium constant for the complex coming apart. As for chain 1 Y102L Y107C G109A, the dissociation constant Kd with fluorescein was at least 10 µM. Further, in data set [1], the yeast surface expression turned out to be 0.168.
The matching figures for chain 1 Y103H Y107Q: at least 10 µM and 0.941.
For chain 1 Y103H Y107I the same measures were at least 10 µM and 1.25.
The matching figures for chain 1 Y103G M105N: at least 10 µM and 1.46.
Take chain 1 Y103G M105S: the dissociation constant (Kd) with fluorescein is at least 10 µM. For the same variant, in data set [1], the yeast surface expression turned out to be 0.983.
The matching figures for chain 1 Y102Q G109D: at least 10 µM and 0.485.
For chain 1 Y103C W108N the same measures were 0.495 µM and 0.227.
The matching figures for chain 1 Y103H G109M: at least 10 µM and 0.304.
For the variant chain 1 Y103D Y107N, in the data set with fluorescein, the Kd is 1.26 µM. For the same variant, the yeast surface expression in data set [1] came to 1.12.
For chain 1 Y103D Y107R the same measures were at least 10 µM and 0.955.
Consider chain 1 Y103D Y107C, for which, in the data set with fluorescein, the Kd is at least 10 µM. In addition, the yeast surface expression in data set [1] was found to be 0.646.
As for chain 1 Y102H G104N M105S, in the data set with fluorescein, the Kd is at least 10 µM. For the same variant, the yeast surface expression in data set [1] worked out at 1.54.
The matching figures for chain 1 Y102I D106Q: at least 10 µM and 0.599.
As for chain 1 Y102G Y103D, the Kd with fluorescein is at least 10 µM. Moreover, in data set [1], the yeast surface expression amounted to 1.29.
The matching figures for chain 1 Y103H W108R: at least 10 µM and 0.35.
Consider chain 1 Y103F G104R W108Y, for which the dissociation constant (Kd) with fluorescein is at least 10 µM. In data set [1], the yeast surface expression came out at 0.139.
The matching figures for chain 1 Y102T Y103R: at least 10 µM and 1.21.
For chain 1 Y102T Y103C the same measures were 0.0245 µM and 0.784.
The matching figures for chain 1 Y102T Y103W: 0.00785 µM and 0.819.
Regarding chain 1 Y102G M105C, in the data set with fluorescein, the Kd was at least 10 µM. The yeast surface expression in data set [1] turned out to be 0.828.
As to chain 1 Y102G M105V, in the data set with fluorescein, the Kd was at least 10 µM. In addition, in data set [1], the yeast surface expression stood at 1.02.
For chain 1 Y102N G104I, the Kd in the data set with fluorescein was at least 10 µM. Further, the yeast surface expression in data set [1] came to 0.859.
For chain 1 Y102N G104Q, the dissociation constant Kd in the data set with fluorescein was at least 10 µM. In addition, the yeast surface expression in data set [1] stood at 0.924.
On to chain 1 Y103I G104P G109M, for which the Kd with fluorescein was at least 10 µM. Moreover, the yeast surface expression in data set [1] is 0.279.
The matching figures for chain 1 Y103A D106I W108P: at least 10 µM and 0.344.
The matching figures for chain 1 Y103F W108Q: 0.00672 µM and 0.382.
The matching figures for chain 1 Y103F W108K: 0.0171 µM and 0.318.
chain 1 Y103F W108I: the equilibrium dissociation constant (Kd) in the data set with fluorescein is at most 0.000316 µM. Also, the yeast surface expression in data set [1] worked out at 0.885.
For the variant chain 1 Y102W Y107W, the Kd with fluorescein came out at 0.00158 µM. Also, the yeast surface expression in data set [1] was found to be 0.797.
With chain 1 Y102W Y107F, the Kd in the data set with fluorescein worked out at 0.00158 µM. In addition, the yeast surface expression in data set [1] came out at 0.61.
For chain 1 Y102W Y107G the same measures were at least 10 µM and 0.493.
chain 1 Y102W Y107S: the Kd in the data set with fluorescein amounted to 0.0944 µM. Further, the yeast surface expression in data set [1] came out at 0.557.
For chain 1 Y102W G109P the same measures were at least 10 µM and 0.245.
For chain 1 Y102W G109V the same measures were at least 10 µM and 0.19.
Regarding chain 1 Y102I W108N, in the data set with fluorescein, the Kd was at least 10 µM. In addition, the yeast surface expression in data set [1] amounted to 0.316.
Take chain 1 Y103E M105I: in the data set with fluorescein, the equilibrium dissociation constant (Kd) was at least 10 µM. Besides, the yeast surface expression in data set [1] is 0.9.
The matching figures for chain 1 Y102H G104F W108Y: at least 10 µM and 0.283.
The matching figures for chain 1 Y102S M105K: 0.00251 µM and 1.02.
Regarding chain 1 Y102S M105N, the Kd in the data set with fluorescein was 0.0038 µM. Besides, the yeast surface expression in data set [1] turned out to be 1.31.
Turning to chain 1 Y103I G109V, the Kd in the data set with fluorescein was at least 10 µM. Moreover, the yeast surface expression in data set [1] came out at 0.222.
In the case of chain 1 Y103E W108T, the dissociation constant Kd with fluorescein is 0.0171 µM. For the same variant, the yeast surface expression in data set [1] worked out at 1.01.
The matching figures for chain 1 Y103E W108I: 0.004 µM and 1.12.
The matching figures for chain 1 Y103E W108N: at least 10 µM and 0.446.
For chain 1 Y103E W108D the same measures were at least 10 µM and 0.473.
Take chain 1 Y103E W108R: the Kd with fluorescein was at least 10 µM. Also, in data set [1], the yeast surface expression is 0.463.
With chain 1 Y103E W108C, the Kd in the data set with fluorescein was found to be 0.0221 µM. Also, the yeast surface expression in data set [1] was found to be 0.758.
For chain 1 Y103C M105L the same measures were 0.02 µM and 0.641.
On to chain 1 Y103C M105G, for which the dissociation constant (Kd) with fluorescein was at least 10 µM. In addition, the yeast surface expression in data set [1] worked out at 0.611.
For chain 1 Y103C M105I the same measures were 6.27 µM and 0.621.
chain 1 Y102L G109M: the dissociation constant Kd in the data set with fluorescein was at least 10 µM. The yeast surface expression in data set [1] turned out to be 0.185.
For chain 1 Y102L G109K the same measures were at least 10 µM and 0.214.
In the case of chain 1 Y102L G109N, the Kd in the data set with fluorescein is at least 10 µM. Besides, the yeast surface expression in data set [1] stood at 0.369.
Turning to chain 1 Y103C D106L, the Kd in the data set with fluorescein is at least 10 µM. Besides, in data set [1], the yeast surface expression is 0.589.
As to chain 1 Y103D G109H, the Kd in the data set with fluorescein was at least 10 µM. For the same variant, in data set [1], the yeast surface expression turned out to be 0.441.
Regarding chain 1 Y103D G109R, in the data set with fluorescein, the Kd is at least 10 µM. Besides, the yeast surface expression in data set [1] turned out to be 0.269.
As to chain 1 Y103D G109D, the Kd in the data set with fluorescein was at least 10 µM. The yeast surface expression in data set [1] was 0.542.
The matching figures for chain 1 Y102G Y103K G109K: at least 10 µM and 0.425.
